Molecular target: patched (receptor for Shh), on patched-transfected EBNA-293 cells
Experiment: FACS competition with Shh-Ig on patched-transfected EBNA-293 cells

Chain of patched (receptor for Shh), on patched-transfected EBNA-293 cells (A3KBI9 whole entry): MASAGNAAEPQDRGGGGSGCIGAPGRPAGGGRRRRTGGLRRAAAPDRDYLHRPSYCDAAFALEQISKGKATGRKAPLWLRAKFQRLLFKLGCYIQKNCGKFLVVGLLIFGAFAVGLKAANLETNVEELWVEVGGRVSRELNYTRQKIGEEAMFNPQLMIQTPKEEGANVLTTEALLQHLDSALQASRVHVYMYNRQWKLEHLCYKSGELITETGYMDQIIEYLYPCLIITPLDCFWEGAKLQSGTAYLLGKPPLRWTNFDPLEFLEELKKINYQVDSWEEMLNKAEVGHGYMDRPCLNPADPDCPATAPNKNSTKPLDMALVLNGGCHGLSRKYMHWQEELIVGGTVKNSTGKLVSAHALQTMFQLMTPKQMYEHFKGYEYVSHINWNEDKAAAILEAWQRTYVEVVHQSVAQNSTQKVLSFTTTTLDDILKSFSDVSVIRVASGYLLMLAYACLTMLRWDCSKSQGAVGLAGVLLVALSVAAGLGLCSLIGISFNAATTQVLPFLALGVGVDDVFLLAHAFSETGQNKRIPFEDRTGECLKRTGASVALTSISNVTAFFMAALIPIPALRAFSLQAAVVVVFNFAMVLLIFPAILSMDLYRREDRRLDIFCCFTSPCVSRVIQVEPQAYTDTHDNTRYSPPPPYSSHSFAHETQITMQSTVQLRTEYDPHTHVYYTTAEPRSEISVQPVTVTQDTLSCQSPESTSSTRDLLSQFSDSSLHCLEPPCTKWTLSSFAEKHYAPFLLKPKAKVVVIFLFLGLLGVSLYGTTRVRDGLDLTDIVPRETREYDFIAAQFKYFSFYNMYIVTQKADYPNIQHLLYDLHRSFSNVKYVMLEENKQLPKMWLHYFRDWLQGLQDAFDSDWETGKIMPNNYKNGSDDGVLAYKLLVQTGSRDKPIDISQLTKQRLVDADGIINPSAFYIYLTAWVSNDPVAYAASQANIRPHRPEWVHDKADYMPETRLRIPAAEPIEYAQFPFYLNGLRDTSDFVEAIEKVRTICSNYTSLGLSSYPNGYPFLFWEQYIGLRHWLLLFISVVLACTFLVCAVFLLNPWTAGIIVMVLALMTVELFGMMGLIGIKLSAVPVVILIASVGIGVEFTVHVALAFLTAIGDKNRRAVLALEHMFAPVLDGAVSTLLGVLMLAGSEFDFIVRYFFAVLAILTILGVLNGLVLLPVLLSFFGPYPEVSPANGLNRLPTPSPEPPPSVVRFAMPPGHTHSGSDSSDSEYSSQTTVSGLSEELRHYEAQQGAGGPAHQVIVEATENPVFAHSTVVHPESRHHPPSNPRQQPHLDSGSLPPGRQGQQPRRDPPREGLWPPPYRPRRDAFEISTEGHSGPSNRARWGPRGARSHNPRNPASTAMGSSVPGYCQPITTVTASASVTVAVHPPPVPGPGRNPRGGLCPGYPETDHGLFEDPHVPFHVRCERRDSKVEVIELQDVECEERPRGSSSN

| IC50 | Substance |
| --- | --- |
| 0.15 µg/mL | soluble human Sonic hedgehog N-terminal fragment (unmodified, Cys-1 to Gly-174, produced in E. coli) (from UniProt Q14623 28-201) (ligand) |
| 0.4 µg/mL | tethered human Sonic hedgehog (N-terminal fragment with a palmitoyl group at the N-terminus and cholesterol at the C-terminus, purified from High Five insect cells) (from UniProt Q14623 28-201) (ligand) |
